Test results reported in US10556007B2, “Antibody which binds Lrg1 and methods of use” (UCL Business PLC, priority 2015, dated 2020).
“Also recorded” adds a separate entry of the source.

How the values were obtained:
[1] = test system: lesions in RPE/Choroid of the JR5558 mouse; test: JR5558 mouse lesion formation; assay type: in vivo; conditions: 50 mg/kg IP every 3 days from D14, eyes harvested D25, vs IgG
Protocol: 15C4 or IgG at 50 mg/kg was administered IP every 3 days from D14. Eyes were harvested on D25 and RPE/Choroid stained with Collagen IV. The number of lesions was counted and data quantified for the two groups.

[2] = test system: Lrg1 (rhLrg1 and liver extracts from mouse, rat, rabbit, monkey, dog and cat); test: Species cross-reactivity ELISA on liver extracts; assay type: binding; conditions: mAb at 100 nM
Protocol: Species cross-reactivity was carried out by ELISA in a protocol in which multiwall plates were coated with rhLrg1, and liver extracts from mouse, rat, rabbit, monkey, dog and cat.

[3] = test system: HUVEC co-cultured with human fibroblasts; test: HUVEC co-culture model of angiogenesis; assay type: cell-based; conditions: 14 days co-culture, 10-200 nM
Protocol: Antibodies 4H2, 15C4 and 3A11 were tested to see if they elicited an inhibition of vessel growth in the co-culture model of angiogenesis. HUVEC were co-cultured with human fibroblasts for 14 days, and then fixed and immunostained with an antibody against PECAM. Avastin was included as a positive control, and all four mAbs were tested at 10, 25, 50, 100 and 200 nM. There were two important observations from this experiment.

B16-F0 tumours = test: B16-F0 tumour, 15C4 with cisplatin; assay type: in vivo, mouse; conditions: vs IgG and cisplatin
Protocol: The adherent cell line B16-F0 was harvested and a single-cell suspension of 1×10^6 cells in 100 μl PBS was injected subcutaneously into the lower back of C57B1/6 male mice. Treatment with 15C4 or IgG was started after three days at 50 mg/kg by intraperitoneal injections, and repeated every 3 days. Suboptimal doses of Cisplatin (2.5 mg/kg) were administered to mice bearing tumours with an average size of 0.5 cm^3 every other day by intraperitoneal injections. Tumours were measured with callipers every other day and volume was calculated using the formula: V=(4/3)×π×(L/2)×(W/2)×(H/2).
Cisplatin and IgG or 15C4 treated tumours were immersion fixed in 4% PFA overnight at 4° C. and then immersed in 30% sucrose overnight at 4° C. Tumour tissue was then OCT embedded and frozen for sectioning (40 μm). TUNEL assay was performed using an ApopTag in situ apoptosis detection kit according to manufacturers protocol (Merk Millipore, USA).
The DNA double strand break marker γ-H2AX was stained for in tumour sections, indicating cisplatin-induced DNA damage.

B16/F0 tumours = test: B16/F0 subcutaneous tumour vasculature; assay type: in vivo, mouse
Protocol: The adherent cell line B16/F0 was harvested and single-cell suspensions of 1×10^6 cells in 100 μl PBS was injected subcutaneously into the lower back of C57B1/6 mice. Tumours were measured every other day with a caliper and volume was calculated using the formula: V=(4/3)×π×(L/2)×(W/2)×(H/2). The mice were sacrificed at defined time intervals or after the tumors reached 2000 mm^3. Treatment with 15C4 or IgG was started after three days at 50 mg/kg by intraperitoneal injections, and repeated every 3 days. Vessels were identified by CD31 immunohistochemistry on tumour sections (FIG. 11).

B1: 15C4: mouse monoclonal antibody against human Lrg1, VH SEQ ID NO: 1, VL SEQ ID NO: 2 (antibody, V domains shown)
VH: QVQLQQSGDEVVRPGSSVKISCKASGYTFSGYWMNWVKQRPGQGLQWIGQIYPGDGDTNYNGKFKGKATLTADKSSSTAYMQLSTLTSEDSAIYFCARSITTVVLDYWGQGTTLTVSS
VL: DIVLTQSPVSLAVSLGQRATISCRASQSVSTSGYSFMHWYQQKPGQPPKFLIKYASNLESGVPARFSGSGSGTDFTLNIHPVEEEDTATYYCQHSWEMPLTFGAGTKLELK
modifications: 15C4 Variable Heavy Chain; 15C4 Variable light chain
number of lesions [1]: reduces lesion formation; also recorded: significantly fewer lesions | cross-reactivity with rodent Lrg1 [2]: None of antibodies 4H2, 3A11 or 15C4 exhibited strong cross-reactivity with rodent Lrg1 | inhibition of vessel growth [3]: equally effective | tumor growth (B16-F0 tumours; 15C4 50 mg/kg IP every 3 days in combination with cisplatin 2.5 mg/kg): significant reduction in tumor growth | apoptosis (TUNEL) (B16-F0 tumours; in combination with cisplatin): Significantly more apoptosis | nuclei with γ-H2AX foci (B16-F0 tumours; in combination with cisplatin): Significantly more nuclei with γ-H2AX foci | endothelial and pericyte co-localisation (B16/F0 tumours; C57BL6 mice, CD31 with αSMA or NG2, vs IgG): increases endothelial and pericyte co-localisation | small vessels / distribution of vessel sizes (CD31) (B16/F0 tumours; C57Bl/6 mice, 50 mg/kg IP every 3 days, vs IgG controls): Fewer small vessels | replication of Lrg1 knockout tumour vessel phenotype (B16/F0 tumours; wild type mice, 50 mg per kg): drives normalisation of tumour vessels; also recorded: These results were mimicked; also recorded: blood vessels are more functional and mature
